This test addresses potassium channel Kv4.3 T1 domain (tetramerization domain, residues 29-143, with N-terminal Met, C-terminal Leu-Glu and six His-tag). Nature of the test: X-ray crystal structure of the T1 tetramer.

The substance “potassium channel Kv4.3 T1 domain (tetramerization domain, residues 29-143, with N-terminal Met, C-terminal Leu-Glu and six His-tag)” returned a solvent-accessible surface area buried by each subunit at its two subunit interfaces of 960 Å^2.

Source of the values: US20040091908A1.
